assay: soluble on expression in E. coli; label from the status in PepcDB or PDB records

Row | Sequence | soluble on expression in E. coli
1 | MGSDKIHHHHHHVPDITIATERCIGCAECARDCPTGIIRMENGIPAVAPRREKRCIGCLHCVTVCPCGALSFRGVTPESCTPLKNRFPQPEALEILMKGRRSVRRFLPEAVDSALIRRTVDAAAHAPSGKNQRGLLFTVVDDPQTMNRLRHDTVEAVREALADGCSHPQTAFFQAALARWDTGTDIIFRNAPHLLWVTAPRTNTTAQADVHVALTYFELMAAACGLGTLWCGFATWAMSEIAPRIARGLGIPEAHTSGYVMLFGKPAVRYHRTAERGCDGFNRVVWPPAT | not soluble
2 | MGSDKIHHHHHHVSIPANNSPVRLALIGAGRWGKNYIRTIAGLPGAALVRLASSNPDNLALVPPGCVIESDWRSVVSAPEVEAVIIATPPATHAEITLAAIASGKAVLVEKPLTLDLAEAEAVAAAAKATGVMVWVEHTQLFNPAWEALKADLTSIGPILAVRSEAGNHGPYRPGGVPMLWDWGAHDVSMVLDLMGRDPDSTSASWAARGEKDGGEAGDVTLTLAFSTVEAHIRLCNTMDKCRRLAVFGEAGTLVMDDRATDKLTLHPPQPDGNWPVGQGHALTVTDEMPLTRAVRLFAGAVRQPEPGPSPLELGLRVVRVLGACS | not soluble
3 | MGSDKIHHHHHHVSKILIIYSSVHGQTRKLCDFMQRELEALEHSVTCASIDNPPAMEGFDKIVLGASIRHGKHNPRVYDFIRENIKVLQEKASSFFSVSLVARKPAKNTPETNPYMQAFLAKSPWQPKLLAVFGGNLDYQGYNALDRNIIRFIMWITKGPTAPDTKVEYTDWDKVKHYAQQVDAL | not soluble
4 | MGSDKIHHHHHHVTALPYLIEPLVLPAAVDSPDAGAFREFGELSDALVLETWGNADRSSPQEARLQYWRDNPYTQLRLFFVWLDGRMVARSWIRFGIQENVHTAVLHVNVLAEFSGRGIGRALLRHAEELAAARGCTTLQTFTEHPADFDAGGAGVLKPETGTGGVPAAARGVRFALAAGYRLEQVERFSALELPLAGDTLAALETEALEKSGEQYELLHWTDRCPDGLAQQLAVLMSRMSTDTPVGALNYDEESWDVARVRHVEDTWQKAGLASLVAGARHRATGELAAYSVLQVSDAKPWLANQDDTLVASHHRGHRLGMLVKILNIRRLLAGYPGVERIITFNAAENDHMLAINVALGFHPEGYDGEWQKAL | not soluble
5 | MGSDKIHHHHHHVTSDLDFHLFCPKGALSDLVQGIWSVSRPAEADELHAWLHSDAASGLLINLGAPLGYDEQEVPAGVYLLPVNKQTTRVTLPPGALAVGVRFLPGAGRAWMMERFAFEQGREAITPLTYHAELMALAASLRACRGHRQRLSLTYRWLRANQTLNQPLPRVINEVLQALDRPDADMTAFENGVMSQRQIERYFRRYLEMTPKYYQRLMRARQTLQALKLSPLAPLADIALELGFADQAHMTRELKQLIKITPKRYRQLLTQGAG | not soluble
6 | MGSDKIHHHHHHVTSEIKRGVSLYSYQNETFQGKMTLEDCIRTSAELGAKGIEIIGEQTFWGWPECGVAQADVDTWHRLIKQYDCTPVSHDFMLDYKRYKGREMPFDEQVASVKNDVDFGARLGMKYIRALVSIAPEVLVAAAPYAEEKGIKILIEVHAPLHFDHPWIIRHAEAFEKSGSDALGFLPDMGMFLFAFPPVWKEKFLRIGVPKNIADYVEKAYEDRVLSEYVILNVQQMGGTGPAIAMAETLRHNAAFEPRRMLDYMHRIHNVHGKFYQMNEDYVEPSIPYDEIVKVLKQGGFNGYICSEYEGNRWIEDAEEPDSVEQVRRQQVMLARLLGETEVPTIQTSPTASAMAEAAA | not soluble
7 | MGSDKIHHHHHHVTSVSLGMPSAPPPVLAPRRKTRQIKVGSVGVGSDSPISVQSMTTTPTTDINATLQQIAELTASGCDIVRVACPSADDAEALPIIARKSQIPVIADIHFQPKYVFAAIEAGCAAVRVNPGNIRKFDDQVKEIARAAKDHGTSIRIGVNAGSLEPGILKKYGKATPEALVESAVWEASLFEEHGFHDFKISVKHNDPVIMVAAYEMLAEKGDWPLHLGVTEAGPAFQGTIKSATAFGALLSRGIGDTIRVSLSAPPVEEIKVGNQILQSLNLRPRKLEIVSCPSCGRAQVDVYTLAEQVTAGLEGMEIPLRVAVMGCVVNGPGEAREADLGVASGNGKGQIFVKGEVIKTVPESEIVETLIEEAMRIAEEMGEADGEDAVKGSPVVSVS | not soluble
8 | MGSDKIHHHHHHVVQKFNRLFGKSNKGVGIELAPERVNVVQLRKQRQGLKLETFTSVAVPEGVVTDGQITDPAAMAQLIQQALAESKIKTTRVATGVPGRDSIVRIIPVPTELDDKELREMVLNHEAGLYLPYPREEADVDYQKLDYFVDEDGIEKVHVLLVATRKEITDTYISTFEQAGLQIDVLEINSFALIRTIREQLRQFGPQEAAVLVDIEFDSTEIAIIVNGVPQFSRTVPIGTYQMQTALARAMSLPTSRDMELLHGMIIPPTPLDGGKTGVTEIDPGMAAILRVLGELTDELRRSIDFYLNQSENLEVAQILLAGPGGGLQQLDEFFTQRLSLPTTQIDPIGSLSLEVDTDKYPQVKRSGLAIVLGLGMREV | not soluble
9 | MGSDKIHHHHHHVVYRYGLALVTQPPLVSLEDLGYGHGPGQRLFDGLSLHIHSGECHCICGPTGSGKSSLLALIAGLNERPFAGVLECQSGVQVALVMQDPQVQLLRRTLGAEVAFGLENQGVAADDMPAAVKSALIRVGLELPLDTCIDTLSLGQKYRVMLASQLVLNPRVLLLDEPWAQLDDEGVGQLMVTLARLKADGMALIIAEHHPAAFAGLLDFHWLLDQGRLQPAAAGKASGALRADILCRWNPNGLGGRKCLTLAPCDLVLPTLAQGGRGRSGSKGFLSARFASAAPEGRSLFRLDTPLVLRTGDIRLLLGDNGSGKSTLLKALAGLQDGVKLPVKLDGRIPNTAAGEVALMLQRPSRQLFELTVVEELSFSIRRRGLDEAQVAWVQAFLAIEHLAAVSPHKLSWGQQHLVLLAALVITEPRLLLLDDPFAGLDEQSLMACIKLLNWYLSRGGCCVLACHRDVTGFEQVARWQLKDGLLTEVEASGQALAARDGAQTKPWELAAGGMGR | not soluble
10 | MGSMDQSIAVKSPLTYAEALANTIMNTYTVEELPPANRWHYHQGVFLCGVLRLWEATGEKRYFEYAKAYADLLIDDNGNLLFRRDELDAIQAGLILFPLYEQTKDERYVKAAKRLRSLYGTLNRTSEGGFWHKDGYPYQMWLDGLYMGGPFALKYANLKQETELFDQVVLQESLMRKHTKDAKTGLFYHAWDEAKKMPWANEETGCSPEFWARSIGWYVMSLADMIEELPKKHPNRHVWKNTLQDMIKSICRYQDKETGLWYQIVDKGDRSDNWLESSGSCLYMYAIAKGINKGYLDRAYETTLLKAYQGLIQHKTETSEDGAFLVKDICVGTSAGFYDYYVSRERSTNDLHGAGAFILAMTELEPLFRSAGK | soluble
11 | MGSSHHHHHHGGTGENLYFQGGSGMSRVPRPHIHQRISVEDIMKGNRRTLAKAITLAESSNPADSTRLGNLLREIHQMATVRTVPRFALSGSPGSGKSSLLDTLGYYLCEKKNMHVGVLAVDPSSTITHGSILGDKTRMEKLGTHLNSYIRPSPSGGHLGGVTSRAWEALEIFEAARFDVVFVETVGVGQSETQCKDLTDMMILLVPPASGDELQGIKKGVVEVADMVVVTKNDGRRKPLVQQTMSAYARAVMYTEEKQGFEKPVIAVSAEEGTNVPELWEAMLKMWNARLESGQIAHLRRAQSTKHFYNYFEMELLAKARRMTNLEMQNMAHRVWEHEMTPREAGDIMVLRTLREHLAADAAVQHDAGKRA | not soluble
12 | MGSSHHHHHHGGTGENLYFQGGSGSFRYTNHLVATLKHRLFLEAAHRQLVRQTFTGVCNGIEVTCTAYGSVVGIRMLDRAVWEPHYQVAADNKSEAAAATPTAPAAASPSRPSSSSSSSSTASGKTGIDLVKLSASIQAATWQAIQKVRAAKEETHSRSLRRNPQVLAEARLRDWYEQDANTLHPRPFDGLKNLEATEWMQAVRFGVPQPARYRRPNAAPKDLGEGGDGAHTDQKPRETITVLRDEDCDPANIPIGSVHPLFAPGLLQLEVDPNVATNGGSRVDEFFVLSEQRKEMRRDEEAFWERVELIRRSQLATIPKGGVKRGYADMADTVQDSIEEKVQLRFTQ | soluble
13 | MGSSHHHHHHGKTIFVIVPTNEEQVAFLEALAKQDELNFDWQNPPTEPGQPVVILIPSDMVEWFLEMLKAKGIPFTVYVEEGGSENLYFQGGGGGGQRHAHDSAVGDKALTHKGRLRLSQNASGSAAGRCGSDDGNDSDQGGVDDDNGGAVGRRRRGAGGVLRRRRPQERGGNARRGGSDGDENSYDGDDAGGIPETDANGVKLTRLQRKKLAKEREREERRQAQEAALEAQRQRMDVNELRDAEAALREEELKAAEEAALQQLRRDKKKAEDEEYAKWVSHIGVEERGELGDEERERQTRMQSFLLDRAAQVQARARRSAAGAKSSPSEEECIHVLILQTAARDLKVSVEELVSTIEQLSQVDKVHGVFDDRGKYVFIAPEQFPLLAQFIRLRGRVSVQEFTRECNRVVMQS | soluble
14 | MGSSHHHHHHGKTIFVIVPTNEEQVAFLEALAKQDELNFDWQNPPTEPGQPVVILIPSDMVEWFLEMLKAKGIPFTVYVEEGGSENLYFQGGGGGGSDGAIVPREGSPQSISEELERRRSEARNLELRVSRKEAELQRAKEEQELLKEMRTVNEMIIRKKERQLSEGVANGVKISPESLAELNALGDALRLENLKTVELQREADVTSHQMEEVERSLENTEKQLLEAKRSTGWDVDRNSARTETAMESAFKEKKRLLSSLTSEQRTLSELSERLKQHAEECQAKVDAAEGMDERFAEAEEQLRQANARYRELIEEVMSNERIQKKTERVLTVANTQDKYKCIRQLEGEKRALHNDLSKLRETNVSNSRSILSLEVRLRQLETRLEAVNGFLREVFAEVEDDEPMDNVPEGAVEVPLALFEELSAALELSRETVVQRDDQLDEHDCKIEQMERKVVILQNAIASRAVSAQVQARGRDTQQRSMYANHSRRRSQLRTERDQLAVENTVLRNRLALL | not soluble
15 | MGSSHHHHHHSQDPPAVHKLTKRIPLRRQVTVSAESSSSMNSNTPLVRITTRLSSTADTPMLAGVSEYELPEDPKWEFPRDKLTLGKPLGEGCFGQVVMAEAVGIDKDKPKEAVTVAVKMLKDDATEKDLSDLVSEMEMMKMIGKHKNIINLLGACTQDGPLYVIVEYASKGNLREYLRARRPPGMEYSYDINRVPEEQMTFKDLVSCTYQLARGMEYLASQKCIHRDLAARNVLVTENNVMKIADFGLARDINNIDYYKKTTNGRLPVKWMAPEALFDRVYTHQSDVWSFGVLMWEIFTLGGSPYPGIPVEELFKLLKEGHRMDKPANCTNELYMMMRDCWHAVPSQRPTFKQLVEDLDRILTLTTNEE | soluble
16 | MGSSHHHHHHSSGLVPRGSHMASGTSKDASGGSSSGKEVLEFYHGYHHSEDEWPVAKTMRDLYDKFAEEHKDSGVEFKPTPVNGDLKDIMNNKVASGEFPDVIDLAGNAVSLAAIEQKLVLDLKPYIDSNKLEKNVGLNYKQNQKDGKIYTVHEQLFTMGLWYNKDIFAKAGAKTPDQWNTWDDFTQAMASIRKQDGVYAFGAGEPSIRLFNTVLGTTENGRKLLDKPLTKEGIESKEFADALKMVMKEIQANGSKNAGGDANAYSKDFQEGKSAVFFNGVWASGEMSKNPSLAPGIYPAGVAISSSGGGITISSKMSEAKQKLALEFLKYMTSDDVQKVIFEKVGANPSNENVNVKELSEKSSEATTKILGQAITQVKNAKAVVPTVSDVWGGDVHTAIINALTESAAENVDVDQKVKSTQDVLKSLIG | soluble
17 | MGSSHHHHHHSSGLVPRGSHMASMTGGQQMGRGSMIIDDLLTKKIIKPRPLNSHKGTFGRVLLIGGNYPYGGAIIMAALACVNSGAGLVTVATHKDNITALHSHLPEAMAFDMVEKDRLSEQITAADVVLMGPGLAEDDLAQTTFDVVWQAIEPKQTLIIDGSAINLLAKRKPAIWPTKQIILTPHQKEWERLSGLTIPEQIEAATQTALAHFPKETILVAKSHQTKIYQGQKIGHIQVGGPYQATGGMGDTLAGMIAGFVAQFHTDRFEVAAAAVFLHSYIADQLSKEAYVVLPTRISAEITRVMKEMSE | soluble
